Test results published in patent publication US20240117402A1, “METHODS FOR (POLY) PEPTIDE TANDEM LIGATION AND CYCLIZATION” (Nanyang Technological University, priority 2021, published 2024).
Values belong to the molecule of their own block, whether it stands above or below them. Where no end group is shown, it is not given here.

Experiments:
butelase-1 = assay: Butelase-1-catalyzed peptide cyclization (substrate screen, pH scan, kinetics); format: biochemical; settings: for substrate preference among P1-Asp peptides: 25 nM butelase-1, 5 μM peptide, pH 4.5, 25° C., 60 min
Method: (§1) FIG. 9. Screening of P1′-Asp peptides for cyclization by A) VyPAL2, B) butelase-1 and C) OaAEP1b. Quantitative summary of reaction yields of the reaction mixtures. For each reaction, 25 nM of the enzyme and 5 μM of the peptide substrate (21a-21i) were mixed and reacted at pH 4.5, 25° C. for 60 min. The positive control peptide 21j was performed at the same conditions except at pH 7.4. Average yields and SDs were calculated from experiments performed in triplicate. The amino acid sequence of the peptides used are set forth in SEQ ID Nos. 15-24.
(§2) FIG. 10. Ligation activity of three different ligases under different pH and substrate. Cyclization activity of A) VyPAL2, B) Butelase-1 or C) OaAEP1b towards substrate 21e-DSL and 21j-NGL; Fold difference was calculated using the cyclization rate of 21j-NGL divided by that of 21e-DSL. All the results were the average reaction rate at different pH in triplicate experiments based on MALDI-TOF analysis. Light grey text in the “Fold difference” axis marks to the maximum fold difference.
(§3) FIG. 11. Enzymatic activity of three different ligases on the cyclization reaction of P1-Asp peptide 21e-DSL or 21a-DGL and P1-Asn-peptide 21j-NGL. A) Scheme of PAL-mediated P1-Asp peptide cyclization; B) Enzymatic kinetics of VyPAL2 in cyclizing 21e-DSL at pH 4.5; C) Enzymatic kinetics of VyPAL2 in cyclizing 21e-DSL at pH 7.0; D) Enzymatic kinetics of OaAEP1b in cyclizing 21a-DGL at pH 5.5; E) Enzymatic kinetics of Butelase-1 in cyclizing 21e-DSL at pH 4.5. F) Scheme of PAL-mediated cyclization of peptide 21j-NGL; G). Enzymatic kinetics of butelase-1 in cyclizing […] at pH 4.5; H)
(§4) Enzymatic kinetics of VyPAL2 in cyclizing 21j-NSL at pH 4.5; I) Enzymatic kinetics of butelase-1 in cyclizing 21j-NSL at pH 7.4; J) Enzymatic kinetics of OaAEP1b in cyclizing 21j-NSL at pH 7.0. Sequences of peptides used are set forth in SEQ ID Nos. 15, 19, 24.
(§5) PALs recognize a tripeptide motif Asx-P1′-P2′ in the acyl donor substrate for their catalyzed ligation reactions. Because the formation of the acyl-enzyme thioester intermediate is the rate-limiting step, the leaving group P1′-P2′ also plays an important role in determining the catalytic kinetics of a particular 40 PAL-mediated reaction. Previous studies have determined Leu as a preferred P2′ residue. To identify the most favorable P1′ residues for PAL-catalyzed Asp-ligation, a panel of peptides (peptide 21a-21j) with C-terminal DXL and N-terminal GI motifs was synthesized and cyclization reactions performed. Peptide 21j with a C-terminal NGL, a P1-Asn peptide favored by VyPAL2, was used for comparison with the P1-Asp peptides 21a-21i. […] Meanwhile, the P1′ substrate specificities of the two other ligases - Butelase-1 and OaAEP1b - were also evaluated by using the same substrates 21a-21j.
A pH scan experiment with the other two ligases: butelase-1 and OaAEP1 b, for their cyclase activity on 21e and 21j was also conducted. […] In fact, the difference in reaction efficiency between 21j and 21e was about 950 times at pH 7.4 (FIG. 10). […] This makes VyPAL2 a more efficient ligase than butelase-1 for Asp-mediated protein modification.

VyPAL2 = assay: VyPAL2-catalyzed peptide cyclization (substrate screen, pH scan, kinetics); format: biochemical, Viola yedoensis
Method: as §1, §2, §3, §4, §5
scanning experiment using the two peptides 21e and 21j was performed. Cyclization reactions were conducted by mixing 5 μM of peptide 21e or 50 μM of 21j with 25 nM of VyPAL2 over a pH range of 4.0 to 7.4. Results confirmed that the optimum pH for the cyclization of the P1-Asn peptide 21j was 6.5-7.4. But for the P1-Asp peptide 21e (which has the C-terminal DSL tripeptide), the optimum pH was 4.0-4.5.
It is worth noting that, at pH 7.4, VyPAL2 processed peptide 21j for cyclization at a rate that is >1000 folds faster than processing peptide 21e (FIG. 10). This enormous difference of reactivity essentially established the orthogonality for ligation at Asn in the presence of aspartyl bonds.

[1] = target: T1, Peptide 5 (SEQ ID NO:10), GFGGIKA
T1 chain: GFGGIKA

[2] = target: T2, Peptide 21e (SEQ ID NO:19), GISTKSIPPISYRDSL
T2 chain: GISTKSIPPISYRDSL

[3] = target: T3, Peptide 1 (SEQ ID NO:7), Ac-KKLAVINHV
T3 chain: KKLAVINHV

[4] = target: T4, Peptide 21j (SEQ ID NO:24), GISTKSIPPISYRNGL
T4 chain: GISTKSIPPISYRNGL

[5] = target: T5, Peptide 7 (SEQ ID NO:11), Ac-KKLAVINGF
T5 chain: KKLAVINGF

[6] = Butelase-1, cyclization, pH 4.5

substrate preference among P1-Asp peptides (butelase-1): slight preference
Molecule: GISTKSIPPISYRDQL (GISTKSIPPISYRDQL-NH2) [Peptide 21h]

substrate preference among P1-Asp peptides (butelase-1): least favored P1-Asp substrate
Molecule: GISTKSIPPISYRDRL (GISTKSIPPISYRDRL-NH2) [Peptide 21f]

The remaining lines, values behind:

Molecule: GISTKSIPPISYRDSL (GISTKSIPPISYRDSL-NH2) [Peptide 21e]
cyclization rate among P1-Asp peptides 21a-21i (VyPAL2; 25 nM VyPAL2, 5 μM peptide, pH 4.5, 25° C., 60 min): fastest cyclization rate
optimum pH for cyclization (VyPAL2; 25 nM VyPAL2, pH range 4.0 to 7.4, 5 μM 21e or 50 μM 21j): 4.0-4.5
Km (VyPAL2; VyPAL2, cyclization, pH 4.5): 25.6 ± 2.6 µM
kcat (VyPAL2; VyPAL2, cyclization, pH 4.5): 0.28 ± 0.023 s⁻¹
Km (VyPAL2; VyPAL2, cyclization, pH 7.0): 42.3 ± 2.8 µM
kcat (VyPAL2; VyPAL2, cyclization, pH 7.0): 0.021 ± 0.001 s⁻¹
Vmax (VyPAL2; VyPAL2, cyclization, pH 7.4): 0.004 µM/min
Km (butelase-1; [6]): 16.6 ± 2.3 µM
kcat (butelase-1; [6]): 0.11 ± 0.01 s⁻¹

B1: VyPAL2 (asparaginyl ligase, active form, SEQ ID NO:1) (protein)
chain: DSIGTRWAVLIAGSKGYHNYRHQADVCHMYQILRKGGVKDENIIVFMYDDIAYNESNPFPGIIINKPGGENVYKGVPKDYTGEDINNVNFLAAILGNKSAIIGGSGKVLDTSPNDHIFIYYADHGAPGKIGMPSKPYLYADDLVDTLKQKAATGTYKSMVFYVEACNAGSMFEGLLPEGTNIYAMAASNSTEGSWITYCPGTPDFPPEFDVCLGDLWSITFLEDCDAHNLRTETVHQQFELVKKKIAYASTVSQYGDIPISKDSLSVYM
Km, intermolecular ligation of GF-peptide 5 (varied) with acyl substrate peptide 4 [1]: 424 µM
kcat, intermolecular ligation of GF-peptide 5 (varied) with acyl substrate peptide 4 [1]: 8.29 S^-1
kcat/Km, intermolecular ligation of GF-peptide 5 (varied) with acyl substrate peptide 4 [1]: 19600 M^-1S^-1
Km, cyclization at pH 4.5 [2]: 25.6 µM
Km, cyclization at pH 7.0 [2]: 42.3 µM
Vmax, cyclization at pH 7.4 [2]: with Vmax of 0.004 and 5.633 µM/min respectively
kcat, cyclization at pH 4.5 [2]: 0.28 s⁻¹
kcat, cyclization at pH 7.0 [2]: 0.021 s⁻¹
kcat/Km, cyclization at pH 4.5 [2]: 10900 ± 195 M^-1s^-1
kcat/Km, cyclization at pH 7.0 [2]: 752 M^-1s^-1
kcat/Km, cyclization at pH 7.0 (value in running text, differs from Table 2) [2]: kcat/Km as ˜847±123 M -1 5 1
Km, intermolecular ligation of peptide 1 (varied) with nucleophile peptide 2 [3]: 182 µM
kcat, intermolecular ligation of peptide 1 (varied) with nucleophile peptide 2 [3]: 0.17 S^-1
kcat/Km, intermolecular ligation of peptide 1 (varied) with nucleophile peptide 2 [3]: 932 M^-1S^-1
Km, cyclization at pH 4.5 [4]: 28.4 µM
Km, cyclization at pH 7.4 [4]: 25.8 µM
Vmax, cyclization at pH 7.4 [4]: with Vmax of 0.004 and 5.633 µM/min respectively
kcat, cyclization at pH 4.5 [4]: 1.9 s⁻¹
kcat, cyclization at pH 7.4 [4]: 5.5 s⁻¹
kcat/Km, cyclization at pH 4.5 [4]: 67000 ± 3230 M^-1s^-1
kcat/Km, cyclization at pH 7.4 [4]: 214000 ± 3900 M^-1s^-1
Km, intermolecular ligation of peptide 7 (varied) with nucleophile peptide 2 [5]: 155 µM
kcat, intermolecular ligation of peptide 7 (varied) with nucleophile peptide 2 [5]: 1.1 S^-1
kcat/Km, intermolecular ligation of peptide 7 (varied) with nucleophile peptide 2 [5]: 7220 M^-1S^-1

B2: butelase-1 (asparaginyl ligase, active form, SEQ ID NO:2) (protein)
chain: VEGTRWAVLVAGSKGYVNYRHQADVCHAYQILKKGGLKDENIIVFMYDDIAYNESNPHPGVIINHPYGSDVYKGVPKDYVGEDINPPNFYAVLLANKSALTGTGSGKVLDSGPNDHVFIYYTDHGGAGVLGMPSKPYIAASDLNDVLKKKHASGTYKSIVFYVESCESGSMFDGLLPEDHNIYVMGASDTGESSWVTYCPLQHPSPPPEYDVCVGDLFSVAWLEDCDVHNLQTETFQQQYEVVKNKTIVALIEDGTHVVQYGDVGLSKQTLFVYMGTDPAN
Km, intermolecular ligation of GF-peptide 5 (varied) with acyl substrate peptide 4 [1]: 365 µM
kcat, intermolecular ligation of GF-peptide 5 (varied) with acyl substrate peptide 4 [1]: 1.55 S^-1
kcat/Km, intermolecular ligation of GF-peptide 5 (varied) with acyl substrate peptide 4 [1]: 4260 M^-1S^-1
Km, cyclization at pH 4.5 [2]: 16.6 µM
kcat, cyclization at pH 4.5 [2]: 0.11 s⁻¹
kcat/Km, cyclization at pH 4.5 [2]: 7210 ± 489 M^-1s^-1
Km, intermolecular ligation of peptide 1 (varied) with nucleophile peptide 2 [3]: 85 µM
kcat, intermolecular ligation of peptide 1 (varied) with nucleophile peptide 2 [3]: 1.47 S^-1
kcat/Km, intermolecular ligation of peptide 1 (varied) with nucleophile peptide 2 [3]: 17300 M^-1S^-1
Km, cyclization at pH 4.5 [4]: 12.7 µM
Km, cyclization at pH 7.4 [4]: 13.5 µM
kcat, cyclization at pH 4.5 [4]: 0.6 s⁻¹
kcat, cyclization at pH 7.4 [4]: 9.4 s⁻¹
kcat/Km, cyclization at pH 4.5 [4]: 47100 ± 3740 M^-1s^-1
kcat/Km, cyclization at pH 7.4 [4]: 714200 ± 5390 M^-1s^-1
Km, intermolecular ligation of peptide 7 (varied) with nucleophile peptide 2 [5]: 175 µM
kcat, intermolecular ligation of peptide 7 (varied) with nucleophile peptide 2 [5]: 0.46 S^-1
kcat/Km, intermolecular ligation of peptide 7 (varied) with nucleophile peptide 2 [5]: 2650 M^-1S^-1
